Test results: US20250043019A1 (Janssen / Centocor, published 2025)

How the values were obtained:
[1] = target: T1, human CD79b on the cell surface (human, UniProt P40259 29-229); test: cell-based or functional assay
T1 sequence: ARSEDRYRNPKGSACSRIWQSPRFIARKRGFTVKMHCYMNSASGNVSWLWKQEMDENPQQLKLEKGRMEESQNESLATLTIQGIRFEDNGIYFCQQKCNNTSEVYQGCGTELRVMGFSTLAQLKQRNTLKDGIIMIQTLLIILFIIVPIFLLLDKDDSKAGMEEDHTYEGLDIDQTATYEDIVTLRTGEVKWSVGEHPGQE

[2] = target: T1, human CD79b on the cell surface; test: cell-based or functional assay; remark: listed apart in the source
[3] = target: T1, human CD79b on the cell surface; test: cell-based or functional assay; remark: listed apart in the source
[4] = target: T1, human CD79b on the cell surface; test: cell-based or functional assay; remark: listed apart in the source
[5] = target: T1, human CD79b on the cell surface; test: cell-based or functional assay; remark: listed apart in the source
[6] = target: T1, human CD79b on the cell surface; test: cell-based or functional assay; remark: listed apart in the source
[7] = target: T1, human CD79b on the cell surface; test: flow cytometry, HBL-1 cells, 1 h 37 C
Method: (§1) All cells were washed with BD stain buffer (BD Biosciences; Cat #554657), centrifuged at 1200 RPM for 3 minutes, with supernatant discarded. Cells were then stained for 20 minutes at 4° C. with BD stain buffer containing AlexaFluor 647 labeled anti-human IgG secondary antibody (Jackson Immuno; Cat #109-606-098) at a 1:200 dilution along with Aqua Fixable Live/Dead stain (Invitrogen; Cat #L34957) at a 1:400 dilution. All cells were washed with BD stain buffer (BD Biosciences; Cat #554657), centrifuged at 1200 RPM for 3 mins, with supernatant discarded. Cells were analyzed using Intellicyt (Sartorius) flow cytometer and mean fluorescent intensity (MFI) was generated using Forcyt software (Sartorius). MFI was graphed and EC50 values generated using GraphPad PRISM v.8. Dose response curves were generated by transforming the x axis values using the formula […]. Data was then graphed using non-linear regression curve fit analysis “log(agonist) vs. response-variable slope (four parameter)”.

[8] = target: T1, human CD79b on the cell surface; test: flow cytometry, Carnaval cells, 1 h 37 C
Method: as §1

[9] = target: T2, cynomolgus monkey CD79b antigen (cynomolgus monkey); test: SPR Biacore 8k, cyno CD79b injected up to 3000 nM
T2 construct: also called cyno CD79b; CD9W1.001
Method in brief: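 Antibodies captured on anti-human Fc C1 chip, CD79b extracellular domain injected in HBSP+ at 25 °C; association 2 or 3 min, dissociation 30 min. Double-referenced sensorgrams fitted to a 1:1 Langmuir model for on-rate, off-rate and affinity.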

[10] = target: T3, recombinant extracellular domain of human CD79b, short isoform (human, UniProt P40259 29-159); test: SPR Biacore 8k, antibody captured by anti-Fc, 25 C
T3 chain: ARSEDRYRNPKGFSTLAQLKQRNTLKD
Method: (§2) General Protocol for SPR Affinity Assessment: Affinity assessment of the bispecific trispecific constructs against human CD79b were measure using recombinantly expressed extracellular domain of CD79b short and long isoforms (CD9W7.001 and CD9W8.001, respectively) by Surface Plasmon Resonance (SPR) using a Biacore 8k SPR system (Biacore) at 25° C. in HBSP+ buffer. Cross-reactivity of the same antibody panel was also assessed against cyno and mouse antigens (CD9W1.001 and CD9W105.001, respectively). Briefly, a C1 sensor chip was immobilized with anti-human Fc (target immobilization levels of >400 RU) using vendor recommended amino coupling protocol. […] The association and dissociation phases were measured for 2 or 3 minutes and 30 minutes, respectively.
(§3) The raw binding sensorgrams were processed using Biacore Insight software (Biacore) by double-referencing and the processed sensorgrams were analyzed for cross-reactivity and fitted to a 1:1 Langmuir model to obtain on-rates, off-rates and affinities.

[11] = target: T4, recombinant extracellular domain of human CD79b, long isoform (human, UniProt P40259 29-159); test: SPR Biacore 8k, antibody captured by anti-Fc, 25 C
T4 construct: also called hu CD79b long
T4 sequence: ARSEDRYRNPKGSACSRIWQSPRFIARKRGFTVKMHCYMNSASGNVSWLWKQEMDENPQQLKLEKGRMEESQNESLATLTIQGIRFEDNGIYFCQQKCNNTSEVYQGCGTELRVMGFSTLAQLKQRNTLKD
Method: as §2, §3

[12] = target: T1, human CD79b on the cell surface; test: flow cytometry, HBL-1 cells, 1 h 37 C; control row of Table 10, same value as Table 8
Method: as §1

[13] = target: T1, human CD79b on the cell surface; test: flow cytometry, Carnaval cells, 1 h 37 C; control row of Table 10, same value as Table 8
Method: as §1

B1: 79C3B646 CD79bxCD3 bispecific antibody (bispecific antibody, human IgG1, lambda, L234A L235A)
heavy: QVQLQQSGPGLVKPSQTLSLTCAISGDSVSSNSATWNWIRQSPSRGLEWLGRTYYRSKWYNDYTVSVKSRITINPDTSKNQFSLQLNSVTPEDTAVYYCTRVDIAFDYWGQGTLVTVSSASTKGPSVFPLAPSSKSTSGGTAALGCLVKDYFPEPVTVSWNSGALTSGVHTFPAVLQSSGLYSLSSVVTVPSSSLGTQTYICNVNHKPSNTKVDKKVEPKSCDKTHTCPPCPAPEAAGGPSVFLFPPKPKDTLMISRTPEVTCVVVSVSHEDPEVKFNWYVDGVEVHNAKTKPREEQYNSTYRVVSVLTVLHQDWLNGKEYKCKVSNKALPAPIEKTISKAKGQPREPQVYTLPPSREEMTKNQVSLSCAVKGFYPSDIAVEWESNGQPENNYKTTPPVLDSDGSFFLVSKLTVDKSRWQQGNVFSCSVMHEALHNRFTQKSLSLSPGK
light: QTVVTQPPSVSEAPRQRVTISCSGSSSNIGNHGVNWYQQLPGKAPKLLIYNDDLLPSGVSDRFSGSTSGTSGSLAISGLQSEDEADYYCAAWDDSLNGVVFGGGTKLTVLGQPKAAPSVTLFPPSSEELQANKATLVCLISDFYPGAVTVAWKADSSPVKAGVETTTPSKQSNNKYAASSYLSLTPEQWKSHRSYSCQVTHEGSTVEKTVAPTECS
chain: EIVLTQSPATLSASPGERVTLSCSASSSVSYMNWYQQKPGQAPRRWIYDSSKLASGVPARFSGSGSGRDYTLTISSLEPEDFAVYYCQQWSRNPPTFGGGTKVEIKGGSEGKSSGSGSESKSTGGSQVQLVQSGAEVKKPGSSVKVSCKASGYTFTRSTMHWVKQAPGQGLEWIGYINPSSAYTNYNQKFQGRVTLTADKSTSTAYMELSSLRSEDTAVYYCASPQVHYDYAGFPYWGQGTLVTVSSEPKSSDKTHTCPPCPAPEAAGGPSVFLFPPKPKDTLMISRTPEVTCVVVSVSHEDPEVKFNWYVDGVEVHNAKTKPREEQYNSTYRVVSVLTVLHQDWLNGKEYKCKVSNKALPAPIEKTISKAKGQPREPQVYTLPPSREEMTKNQVSLWCLVKGFYPSDIAVEWESNGQPENNYKTTPPVLDSDGSFFLYSKLTVDKSRWQQGNVFSCSVMHEALHNHYTQKSLSLSPGK
notes: IgG1 bispecific; CD79b Fab arm plus CD3 scFv-Fc arm; also called 79C3B646 bsAb; CD9B330-N31S x CD3B2030-N106A
IC50, T-cell killing of HBL-1 (Incucyte) [1]: 0.257 nM
IC50, T-cell killing of OCI-Ly10 (Incucyte) [2]: 18.3 nM
IC50, CARNAVAL killing (Incucyte) [3]: 1.39 nM
IC50, Daudi killing (Incucyte) [4]: 0.597 nM
IC50, CARNAVAL killing, 72 h (FACS) [5]: 0.29 nM
IC50, HBL-1 killing, 72 h (FACS) [5]: 0.73 nM
IC50, OCI-LY10 killing, 72 h (FACS) [5]: > 100 nM
Cmax (maximum cytotoxicity), donor 1 [6]: 9%
Cmax (maximum cytotoxicity), donor 2 [6]: 14%
Cmax (maximum cytotoxicity), donor 3 [6]: 35%
EC50, autologous B-cell depletion, donor 1 [6]: 40 nM
EC50, autologous B-cell depletion, donor 2 [6]: 6 nM
EC50, autologous B-cell depletion, donor 3 [6]: 8 nM
EC50 [7]: 97 nM
EC50 [8]: 44 nM
Kd [9]: > 3000 nM
Kd [10]: 0.58 nM
Kd [11]: 0.022 nM
EC50 [12]: 97 nM
EC50 [13]: 44 nM
